Measurements published in patent US20230340132A1, “ANTI-ADENOSINE RECEPTOR (A2aR) ANTIBODIES” (NA Biotech Corp, priority 2020, published 2023).
Values joined by “and” are separate entries in the source; they are usually repeats but may differ in a detail not shown here. Identical values can stand only once. “Also recorded” adds a separate entry of the source.

T1: human adenosine receptor A2B (human, UniProt P29275 1-332)
T1 construct: whole, on cells; the tag is not described; also called A2bR; human A2bR
T1 sequence (looked up): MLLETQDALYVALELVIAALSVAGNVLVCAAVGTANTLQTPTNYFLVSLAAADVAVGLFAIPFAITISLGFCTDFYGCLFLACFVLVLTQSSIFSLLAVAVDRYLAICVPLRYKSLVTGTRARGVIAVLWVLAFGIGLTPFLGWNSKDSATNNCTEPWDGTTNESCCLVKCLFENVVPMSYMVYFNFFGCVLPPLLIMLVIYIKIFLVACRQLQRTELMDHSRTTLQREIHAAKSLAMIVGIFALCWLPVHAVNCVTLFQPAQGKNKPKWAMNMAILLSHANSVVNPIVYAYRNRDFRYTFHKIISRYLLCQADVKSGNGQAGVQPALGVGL

B1: 3F6-9G5: anti-human A2aR monoclonal antibody from mouse hybridoma clone; HCVR SEQ ID NO: 36, LCVR SEQ ID NO: 42 (antibody, V domains shown)
VH: QVQLQQPGTELVKPGAPVRLSCKASGFAFTSYWMNWVRQRPGRGLEWIGRIDPSDSEAHYHHKFWGKATLTVDKSSSTVYIQLNGLTSEDSAVYYCLRSLYGKGDYWGHGTTLTVSS
VL: DVLMTQTPLSLSVRLGDQASISCRSSQSLVHRNGNTYLEWYLQRPGQSPKLLIYKVSNRFSGVPDRFSGSGSGTDFTLKISRVEAEDLGVYYCYQGSHVPLTFGSGTKLEIK
B2: anti-human A2aR monoclonal antibody 1B5-3D7 (antibody, V domains shown)
VH: QVQLQQPGTELVKPGAPVKLSCKTSGFTFTRFWMNWVRQRPGRGLEWIGRIDPYDSETQYNHKFWDRATLTVDKSSSTVYIQLSSLTSEDSAVYYCGRSLYGKGDYWGQGTTLTVSS
VL: DVLMTQSPLSLPVSLGDQASISCRSSQSIVHSNGNTYLEWYLQRPGQSPKLLIYKVSNRFSGVPDRFSGSGSGTYFTLRISRVEAEDLGIYYCFQGSHVPLTFGSGTTLELK
notes: Tested as whole mouse IgG2a / kappa, purified from hybridoma supernatant or made recombinantly in Expi293 cells; also called 1B-3D7

Legend:
[1] = target: T2, mouse adenosine receptor A2A (Mus musculus, UniProt Q60613); experiment: flow cytometry-based cell-binding assay, HEK293T-mA2A; settings: duplicate
T2 construct: FLAG
Procedure: (§1) To test the specificity of the antigen binding molecules of the invention, e.g., anti-A2aR antibodies or antigen binding fragments thereof to human A2aR and not towards any of the other 3 adenosine receptor family members, a flow cytometry-based cell-binding assay was performed by Multispan Inc (Hayward, CA). HEK293T cells stably expressing various adenosine receptors, i.e., human A1R, A2bR, and A3R, and mouse A2R, generated by Multispan Inc and HEK293T parental cell lines were used in the assay. Briefly, adenosine receptor-overexpressing cell lines and HEK293T parental cell lines were incubated with 2, 10, and 50 nM of anti-human A2aR monoclonal antibodies (clones 1B5-3D7 and 3F6-9G5) and 10 and 50 nM of mouse IgG2a Isotype control at 4° C. in the dark for 60 minutes. Anti-FLAG antibody (Abcam, ab72469, 2 μg/mL) was used as positive control for cell lines over-expressing various adenosine receptors, respectively. After 3 washes with FACS buffer (PBS plus 0.1% BSA and 0.2% sodium azide), cells were stained with an anti-mouse-IgG-PE (Invitrogen, cat. P852) detection antibody for 45 minutes at 4° C. The cells were then washed 3 times with FACS buffer and analyzed on FACSort (Becton Dickinson). Data was analyzed using CellQuest Pro (Becton Dickinson).

human A2aR = target: T3, human A2aR (Homo sapiens, UniProt P29274); experiment: FACS screening of hybridoma clones on human A2aR-expressing Expi293 cells; type: binding; settings: antibodies from hybridoma clones
T3 construct: expressed in transfected cells; host or cells: Expi293
Procedure: Serum titration was performed using Fluorescence-Activated Cell Sorting (FACS) pursuant to standard procedures. Human A2aR-expressing Expi293 cells were first added to 96-well plate (1×10^5 cells per well), 50 μl of serial diluted serum (1:50, 1;150, 1:450, 1:[…], 1:12150) from each individual mouse was incubated with cells for 30 min. on ice. After washing with FACS buffer (2% Fetal bovine serum, 2 mM EDTA in PBS), Alex Fluor 647-conjugated anti mouse IgG was added and incubated for 20 min on ice. Cells were resuspending with 100 μl FACS buffer after two times wash and ready for FACS analysis (BD LSR II Flow Cytometer, HTS). […] (MFI: mean fluorescence intensity).
Primary screening of the hybridoma supernatants in the 96-well plates was performed using the same FACS procedure as described for serum titration except following changes: 1) Human A2aR-expressing Expi293 cells (expressing GFP) were mixed at 1:1 ratio with parental Expi293 (no A2aR expression) and added to 96-well plates (2×10^5 cells per well), 2) 50 μl hybridoma supernatant transferred from each well of 96-well plates was incubated with cells for 30 min. on ice.
Sub-cloning was performed by limiting dilution method. In short, the positive wells identified by FACS were seeded into 96-well plate at an average density of 1 cell/well. The […] was placed in incubator for 7-10 days to allow the growth of the cells. The growth of cells was monitored periodically. At about day 4, the wells on the plate were observed under phase contrast microscopy and the wells which appeared to have single colony growing (i.e., only one clumping of hybridomas) were recorded. The cells from the single colony wells were screed by FACS using the same procedure as described for primary screening of hybridoma when the confluence of the cell reached about 50%.

[2] = test system: HEK293T cell without exogenous adenosine receptor; experiment: flow cytometry-based cell-binding assay, parental HEK293T; design: species or system human; settings: duplicate
Procedure: as §1

[3] = target: T4, human A2aR on human T cells (PBMC) (Homo sapiens, UniProt P29274); experiment: primary cell binding by flow cytometry, human PBMC; settings: rabbit Fc format, 2 μg/ml
T4 construct: host or cells: human PBMC (T cells)
Procedure: Human and cynomolgus PBMCs were purchased from Cytologics LLC (San Diego, CA) and iQ Biosciences (Berkeley, CA), respectively. Primary cell binding was determined using anti-human A2aR clone 3F6-9G5 at rabbit Fc format. In brief, 10^6 human and/or cynomolgus PBMCs in 100 μl FACS buffer were incubated with 3F6-9G5 (2 μg/ml) at 4° C. for 60 minutes. Cynomolgus cross-reactive anti-human CD3 (clone SP34, BD), anti-human CD8 (clone RPA-T8, Biolegend) and Zombie Green fixable Viability dye (Biolegend, Cat. 423111) were used according to manufacturer's instruction to define live immune cell subsets. After 3 washes with FACS buffer, cells were stained with PE-conjugated donkey anti-rabbit Fc detection antibody (1:200, Biolegend, Cat. 406421) for 30 minutes at 4° C. After 3 washes with FACS buffer, cells were analyzed on LSRII (Becton Dickinson). Data was analyzed using FlowJo (Becton Dickinson).

[4] = target: T5, human adenosine receptor A2A (Homo sapiens, UniProt P29274); experiment: flow cytometry-based cell-binding assay, HEK293T-A2A; settings: for Geo Mean: HEK293T-A2A, duplicate; for binding to human A2aR (in words): summary of Table 12
T5 construct: FLAG
Procedure: as §1

[5] = target: T6, mouse adenosine receptor A2A (mouse, UniProt Q60613 1-410); experiment: flow cytometry on HEK293T cells stably expressing mouse A2aR
T6 construct: whole, on cells; the tag is not described; also called mouse A2aR; mouse A2R

[6] = target: human adenosine A2A receptor (A2aR) (human, UniProt P29274 1-412); experiment: cell-based or functional assay
[7] = target: T1, human adenosine receptor A2B; experiment: flow cytometry on HEK293T cells stably expressing human A2bR

T5 sequence (P29274 whole entry): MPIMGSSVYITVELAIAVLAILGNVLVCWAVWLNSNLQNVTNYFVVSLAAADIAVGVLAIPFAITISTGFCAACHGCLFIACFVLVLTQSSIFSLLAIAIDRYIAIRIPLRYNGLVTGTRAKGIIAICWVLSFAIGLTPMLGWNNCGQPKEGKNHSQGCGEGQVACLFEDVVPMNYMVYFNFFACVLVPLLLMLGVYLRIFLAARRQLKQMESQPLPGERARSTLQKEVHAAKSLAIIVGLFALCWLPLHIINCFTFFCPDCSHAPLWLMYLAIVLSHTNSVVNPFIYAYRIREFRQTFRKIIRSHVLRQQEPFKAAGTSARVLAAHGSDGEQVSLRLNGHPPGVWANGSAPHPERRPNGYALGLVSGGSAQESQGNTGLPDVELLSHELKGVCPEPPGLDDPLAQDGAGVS
T2 sequence (Q60613 whole entry): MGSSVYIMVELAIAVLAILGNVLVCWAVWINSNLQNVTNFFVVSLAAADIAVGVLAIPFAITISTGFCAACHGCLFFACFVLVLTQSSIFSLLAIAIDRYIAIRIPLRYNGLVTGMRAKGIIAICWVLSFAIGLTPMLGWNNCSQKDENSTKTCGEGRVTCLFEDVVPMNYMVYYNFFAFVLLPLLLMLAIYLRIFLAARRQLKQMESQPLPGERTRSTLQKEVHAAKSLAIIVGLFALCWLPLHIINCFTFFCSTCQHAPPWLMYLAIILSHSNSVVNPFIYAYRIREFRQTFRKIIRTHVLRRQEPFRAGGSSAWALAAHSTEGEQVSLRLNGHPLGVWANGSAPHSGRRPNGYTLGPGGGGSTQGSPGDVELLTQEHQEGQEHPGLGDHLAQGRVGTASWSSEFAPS
T4 sequence (P29274 whole entry): as the sequence (P29274 whole entry) above
T3 sequence (P29274 whole entry): as above
human adenosine A2A receptor (A2aR), sequence (P29274 whole entry): as above
T6 sequence (Q60613 whole entry): as the sequence (Q60613 whole entry) above

Row | Molecule | Geo Mean ([1]; 2 nM) | Geo Mean ([1]; 10 nM) | Geo Mean ([1]; 50 nM) | binding to human A2aR-expressing cells (FIG. 2) (human A2aR) | Geo Mean ([2]; 2 nM) | Geo Mean ([2]; 10 nM) | Geo Mean ([2]; 50 nM) | binding to human T cells (CD4+ and CD8+) of PBMC (FIG. 6) [3] | Geo Mean ([4]; 2 nM) | Geo Mean ([4]; 10 nM) | Geo Mean ([4]; 50 nM) | binding to human A2aR (in words) [4] | binding result [5] | IC50 (M), cAMP-Glo assay of NECA-induced cAMP in HEK293 cells stably expressing human A2aR [6] [M] | binding result [7]
1 | B1 | 2.9 and 3.08 | 3.7 and 3.25 | 4.98 and 4.76 | specific binding | 3.98 and 4.33 | 4.01 and 4.27 | 4.19 and 6.16 | bound to a small subset of human T cells; also recorded: binds | 112.47 and 109.2 | 273.51 and 290.29 | 270 and 289.37 | specifically bound to human A2aR | – | – | –
2 | B2 | 2.96 and 3.82 | 4.13 and 6.16 | 3.48 and 6.03 | specific binding | 3.69 and 4.11 | 5.42 and 4.07 | 5.24 and 4.96 | – | 97.49 and 95.04 | 261.79 and 221.91 | 260.67 and 377.56 | specifically bound to human A2aR | no binding (tested: 2, 10 and 50 nM tested) | 4.48e-09 | no binding (tested: 2, 10 and 50 nM tested)
